Measurements published in the supplement of paper PMC9112550, “Optimization of the antimicrobial peptide Bac7 by deep mutational scanning” (BMC Biology, 2022).

System: Escherichia coli TOP10
Experiment: shrunken log2 fold change of peptide-encoding DNA abundance (4.5 h post-induction vs induction); higher = less antimicrobial activity (less host growth inhibition)
Conditions: time post-induction: 4.5 h; library: site-saturation at positions 5, 18, 19, 20
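Also: peptides expressed intracellularly from a pBAD plasmid library in pooled LB shake-flask culture, induced with 0.3% L-arabinose, DNA abundance read by NGS, three biological replicates, DESeq2 with apeglm shrinkage.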

| Sequence | shrunken log2 fold change |
| --- | --- |
| RRIRWRPPRLPRPRPRPIHNPRP | -0.458 |
| RRIRIRPPRLPRPRPRPFGCPRP | -0.742 |
| RRIRMRPPRLPRPRPRPDMPPRP | -0.0178 |
| RRIRVRPPRLPRPRPRPEPLPRP | 0.204 |
| RRIRWRPPRLPRPRPRPEDDPRP | 1.19 |
| RRIRGRPPRLPRPRPRPEMCPRP | 1.4 |
| RRIRLRPPRLPRPRPRPKGSPRP | -0.0276 |
| RRIRSRPPRLPRPRPRPNLDPRP | -0.0975 |
| RRIRNRPPRLPRPRPRPYAQPRP | -0.55 |
| RRIRFRPPRLPRPRPRPVSTPRP | -0.476 |
| RRIRSRPPRLPRPRPRPNWAPRP | 0.64 |
| RRIRCRPPRLPRPRPRPSRCPRP | 0.137 |
| RRIRCRPPRLPRPRPRPMDYPRP | -0.181 |
| RRIRDRPPRLPRPRPRPIFMPRP | -0.285 |
| RRIRNRPPRLPRPRPRPRDMPRP | -0.121 |
| RRIRSRPPRLPRPRPRPFNHPRP | -1.19 |
| RRIRARPPRLPRPRPRPELCPRP | 0.92 |
| RRIRNRPPRLPRPRPRPFSPPRP | -0.148 |
| RRIRDRPPRLPRPRPRPLEYPRP | 0.061 |
| RRIRIRPPRLPRPRPRPVKNPRP | -0.765 |

| Sequence | shrunken log2 fold change |
| --- | --- |
| RRIRFRPPRLPRPRPRPQRKPRP | 0.089 |
| RRIRYRPPRLPRPRPRPWCCPRP | -0.207 |
| RRIRWRPPRLPRPRPRPQHRPRP | 0.25 |
| RRIRWRPPRLPRPRPRPFPTPRP | -0.12 |
| RRIRKRPPRLPRPRPRPTKSPRP | 2.1 |
| RRIRCRPPRLPRPRPRPDEMPRP | -0.0197 |
| RRIRIRPPRLPRPRPRPWIYPRP | -0.126 |
| RRIRHRPPRLPRPRPRPCQIPRP | -0.0122 |
| RRIRDRPPRLPRPRPRPPCMPRP | -0.317 |
| RRIRKRPPRLPRPRPRPKCLPRP | 0.118 |
| RRIRGRPPRLPRPRPRPMFIPRP | 0.0775 |
| RRIRQRPPRLPRPRPRPDDFPRP | -0.0929 |
| RRIRRRPPRLPRPRPRPCNHPRP | -0.011 |
| RRIRWRPPRLPRPRPRPDQTPRP | -0.00176 |
| RRIRNRPPRLPRPRPRPAHQPRP | -0.108 |
| RRIRQRPPRLPRPRPRPINVPRP | -0.0732 |
| RRIRKRPPRLPRPRPRPCEWPRP | -0.0222 |
| RRIRDRPPRLPRPRPRPKALPRP | -0.00674 |
| RRIRLRPPRLPRPRPRPVHQPRP | 0.244 |
| RRIRRRPPRLPRPRPRPQVGPRP | 0.149 |

| Sequence | shrunken log2 fold change |
| --- | --- |
| RRIRMRPPRLPRPRPRPQPWPRP | 0.561 |
| RRIRYRPPRLPRPRPRPAFTPRP | -0.639 |
| RRIRSRPPRLPRPRPRPIDNPRP | -0.163 |
| RRIRMRPPRLPRPRPRPTFHPRP | -0.00995 |
| RRIRHRPPRLPRPRPRPPFVPRP | 0.0135 |
| RRIRPRPPRLPRPRPRPCYVPRP | -0.469 |
| RRIRQRPPRLPRPRPRPPFSPRP | -0.0357 |
| RRIRCRPPRLPRPRPRPSAIPRP | -0.014 |
| RRIRMRPPRLPRPRPRPMITPRP | -0.0461 |
| RRIRERPPRLPRPRPRPEPRPRP | 0.379 |
| RRIRCRPPRLPRPRPRPSFQPRP | -0.384 |
| RRIRDRPPRLPRPRPRPEFQPRP | 0.4 |
| RRIRLRPPRLPRPRPRPKLGPRP | -0.123 |
| RRIRKRPPRLPRPRPRPWTKPRP | -0.0423 |
| RRIRNRPPRLPRPRPRPDQQPRP | -0.0806 |
| RRIRDRPPRLPRPRPRPAKVPRP | 0.114 |
| RRIRSRPPRLPRPRPRPAWWPRP | 0.23 |
| RRIRTRPPRLPRPRPRPFELPRP | -0.0363 |
| RRIRRRPPRLPRPRPRPKFLPRP | 0.133 |
| RRIRERPPRLPRPRPRPICFPRP | -0.221 |
